Legend:
Type in all cases: biochemical
[1] = HTP-analysis of yeast culture supernatants, no challenge (MUGal hydrolysis); conditions: activity of the variant/activity of Rd3BB (SEQ ID NO: 13)
Procedure, shortened: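 GLA variants expressed in yeast INVSc1, secreted into SD-Ura broth over 66-84 h at 30° C; clarified supernatants tested without challenge. Supernatant mixed with McIlvaine buffer pH 4.8 and 2 mM MUGal (citrate/KCl, pH 4.6), 37° C for 30-180 min, carbonate-quenched, fluorescence Ex 355/Em 448 nm.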

[2] = HTP-analysis of supernatants pretreated with acid (MUGal hydrolysis); conditions: activity of the variant/activity of Rd3BB (SEQ ID NO: 13); challenge at pH 3.7
Procedure, shortened: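 Supernatants from INVSc1 yeast secreting GLA variants were challenged at 37° C. for 1-3 h in McIlvaine buffer at pH 3.3-4.3. Residual activity was then measured on 4 mM MUGal substrate stock at pH 4.8 with citrate buffer pH 4.3, over 30-180 min at 37° C. Reactions were quenched with sodium carbonate and read by fluorescence (Ex 355/Em 448 nm).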

[3] = HTP-analysis of supernatants pretreated with base (MUGal hydrolysis); conditions: activity of the variant/activity of Rd3BB (SEQ ID NO: 13); challenge at pH 9.7
Procedure, shortened: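 Fluorescence of released 4-MU (Ex 355 nm, Em 448 nm) after carbonate quench reports MUGal hydrolysis by GLA variants secreted from INVSc1 yeast. Before the acidic (pH 4.3-4.8) 30-180 min reaction at 37° C, supernatants had been pre-incubated at pH 7.0-9.7 for 1-18 h at 37° C.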

B1: 602 (protein)
chain: LDNGLARTPTMGWLHWERFMCNLDCQEEPDSCISEKLFEEMAERMVSEGWKDAGYEYLCIDDCWMAPQRDSEGRLQADPQRFPHGIRQLANHVHSKGLKLGIYADVGNKTCAGFPGSFGYYDIDAQTFADWGVDLLKFDGCYCDSLENLADGYKHMSLALNRTGRSIVYSCEWPLYMWPFQKPNYTEIRQYCNHWRNFADIDDSWASIKSILDWTSRNQERIVDVAGPGGWNDPDMLVIGNFGLSWDQQVTQMALWAIMAAPLFMSNDLRHISPQAKALLQDKDVIAINQDPLGKQGYQLRKGDNFEVWERPLSGDAWAVAIINRQEIGGPRSYTIPVASLGKGVACNPACFITQLLPVKRQLGFYNWTSRLKSHINPTGTVLLQLENTMQMSLKDLL
modifications: Synthetic Polypeptide sequence of Variant No. 602 of mature Human GLA
- Relative Activity of GLA Variants After No Challenge (NC) [1]: + (+ = 1.5 to 5 relative activity over Rd3BB (SEQ ID NO: 13))
- Relative Activity of GLA Variants After Challenge at pH 3.7 [2]: + (+ = 1.5 to 5 relative activity over Rd3BB (SEQ ID NO: 13))
- Relative Activity of GLA Variants After Challenge at pH 9.7 [3]: ++ (++ = >5 to 10 relative activity over Rd3BB (SEQ ID NO: 13))

B2: 608 (protein)
chain: LDNGLARQPTMGWLHWERFMCNLDCQEEPDSCISEKLFMEMAERMVSEGWKDAGYEYLCIDDCWMAPQRDSEGRLQADPQRFPHGIRQLANHVHSKGLKLGIYADVGNKTCAGFPGSFGYYDIDAQTFADWGVDLLKFDGCYCDSLENLADGYKHMSLALNRTGRSIVYSCEWPLYMWPFQKPNYTEIRQYCNHWRNFADIDDSWASIKSILDWTSRNQERIVDVAGPGGWNDPDMLVIGNFGLSWDQQVTQMALWAIMAAPLFMSNDLRHISPQAKALLQDKDVIAINQDPLGKQGYQLRKGDNFEVWERPLSGDAWAVAIINRQEIGGPRSYTIPVASLGKGVACNPACFITQLLPVKRQLGFYNWTSRLKSHINPTGTVLLQLENTMQMSLKDLL
modifications: Synthetic Polypeptide sequence of Variant No. 608 of mature Human GLA
- Relative Activity of GLA Variants After No Challenge (NC) [1]: + (+ = 1.5 to 5 relative activity over Rd3BB (SEQ ID NO: 13))
- Relative Activity of GLA Variants After Challenge at pH 3.7 [2]: + (+ = 1.5 to 5 relative activity over Rd3BB (SEQ ID NO: 13))
- Relative Activity of GLA Variants After Challenge at pH 9.7 [3]: + (+ = 1.5 to 5 relative activity over Rd3BB (SEQ ID NO: 13))

B3: 605 (protein)
chain: LDNGLARTPPMGWLHWERFMCNLDCQEEPDSCISEKLFMEMAERMVSEGWKDAGYEYLCIDDCWMAPQRDSEGRLQADPQRFPHGIRQLANHVHSKGLKLGIYADVGNKTCAGFPGSFGYYDIDAQTFADWGVDLLKFDGCYCDSLENLADGYKHMSLALNRTGRSIVYSCEWPLYMWPFQKPNYTEIRQYCNHWRNFADIDDSWASIKSILDWTSRNQERIVDVAGPGGWNDPDMLVIGNFGLSWDQQVTQMALWAIMAAPLFMSNDLRHISPQAKALLQDKDVIAINQDPLGKQGYQLRKGDNFEVWERPLSGDAWAVAIINRQEIGGPRSYTIPVASLGKGVACNPACFITQLLPVKRQLGFYNWTSRLKSHINPTGTVLLQLENTMQMSLKDLL
modifications: Synthetic Polypeptide sequence of Variant No. 605 of mature Human GLA
- Relative Activity of GLA Variants After No Challenge (NC) [1]: + (+ = 1.5 to 5 relative activity over Rd3BB (SEQ ID NO: 13))
- Relative Activity of GLA Variants After Challenge at pH 3.7 [2]: +++ (+++ = >10 relative activity over Rd3BB (SEQ ID NO: 13))
- Relative Activity of GLA Variants After Challenge at pH 9.7 [3]: ++ (++ = >5 to 10 relative activity over Rd3BB (SEQ ID NO: 13))

B4: 522 (protein)
chain: LDNGLARTPTMGWLHWERFMCNLDCQEEPDSCISEKLFMEMAERMVSEGWKDAGYKYLCIDDCWMAPQRDSEGRLQADPQRFPHGIRQLANHVHSKGLKLGIYADVGNKTCAGFPGSFGYYDIDAQTFADWGVDLLKFDGCYCDSLENLADGYKHMSLALNRTGRSIVYSCEWPLYMWPFQKPNYTEIRQYCNHWRNFADIDDSWASIKSILDWTSRNQERIVDVAGPGGWNDPDMLVIGNFGLSWDQQVTQMALWAIMAAPLFMSNDLRHISPQAKALLQDKDVIAINQDPLGKQGYQLRKGDNFEVWERPLSGDAWAVAIINRQEIGGPRSYTIPVASLGKGVACNPACFITQLLPVKRQLGFYNWTSRLKSHINPTGTVLLQLENTMQMSLKDLL
modifications: Synthetic Polypeptide sequence of Variant No. 522 of mature Human GLA
- Relative Activity of GLA Variants After No Challenge (NC) [1]: + (+ = 1.5 to 5 relative activity over Rd3BB (SEQ ID NO: 13))
- Relative Activity of GLA Variants After Challenge at pH 3.7 [2]: +++ (+++ = >10 relative activity over Rd3BB (SEQ ID NO: 13))
- Relative Activity of GLA Variants After Challenge at pH 9.7 [3]: ++ (++ = >5 to 10 relative activity over Rd3BB (SEQ ID NO: 13))

B5: 606 (protein)
chain: LDNGLARTPPMGWLHWERFMCNLDCQEEPDSCISEKLFMEMAERMVSEGWKDAGYEYLCIDDCWMAPQRDSEGRLQADPQRFPHGIRQLANHVHSKGLKLGIYADVGNKTCAGFPGSFGYYDIDAQTFADWGVDLLKFDGCYCDSLENLADGYKHMSLALNRTGRSIVYSCEWPLYMWPFQKPNYTEILQYCNHWRNFADIDDSWASIKSILDWTSRNQERIVDVAGPGGWNDPDMLVIGNFGLSWDQQVTQMALWAIMAAPLFMSNDLRHISPQAKALLQDKDVIAINQDPLGKQGYQLRKGDNFEVWERPLSGDAWAVAIINRQEIGGPRSYTIPVASLGKGVACNPACFITQLLPVKRQLGFYNWTSRLKSHINPTGTVLLQLENTMQMSLKDLL
modifications: Synthetic Polypeptide sequence of Variant No. 606 of mature Human GLA
- Relative Activity of GLA Variants After No Challenge (NC) [1]: + (+ = 1.5 to 5 relative activity over Rd3BB (SEQ ID NO: 13))
- Relative Activity of GLA Variants After Challenge at pH 3.7 [2]: +++ (+++ = >10 relative activity over Rd3BB (SEQ ID NO: 13))
- Relative Activity of GLA Variants After Challenge at pH 9.7 [3]: ++ (++ = >5 to 10 relative activity over Rd3BB (SEQ ID NO: 13))

B6: 604 (protein)
chain: LDNGLARTPTMGWLHWERFMCNLDCQEEPDSCISEKLFVEMAERMVSEGWKDAGYEYLCIDDCWMAPQRDSEGRLQADPQRFPHGIRQLANHVHSKGLKLGIYADVGNKTCAGFPGSFGYYDIDAQTFADWGVDLLKFDGCYCDSLENLADGYKHMSLALNRTGRSIVYSCEWPLYMWPFQKPNYTEIRQYCNHWRNFADIDDSWASIKSILDWTSRNQERIVDVAGPGGWNDPDMLVIGNFGLSWDQQVTQMALWAIMAAPLFMSNDLRHISPQAKALLQDKDVIAINQDPLGKQGYQLRKGDNFEVWERPLSGDAWAVAIINRQEIGGPRSYTIPVASLGKGVACNPACFITQLLPVKRQLGFYNWTSRLKSHINPTGTVLLQLENTMQMSLKDLL
modifications: Synthetic Polypeptide sequence of Variant No. 604 of mature Human GLA
- Relative Activity of GLA Variants After No Challenge (NC) [1]: + (+ = 1.5 to 5 relative activity over Rd3BB (SEQ ID NO: 13))
- Relative Activity of GLA Variants After Challenge at pH 3.7 [2]: + (+ = 1.5 to 5 relative activity over Rd3BB (SEQ ID NO: 13))
- Relative Activity of GLA Variants After Challenge at pH 9.7 [3]: ++ (++ = >5 to 10 relative activity over Rd3BB (SEQ ID NO: 13))

B7: 607 (protein)
chain: LDNGLARLPTMGWLHWERFMCNLDCQEEPDSCISEKLFMEMAERMVSEGWKDAGYEYLCIDDCWMAPQRDSEGRLQADPQRFPHGIRQLANHVHSKGLKLGIYADVGNKTCAGFPGSFGYYDIDAQTFADWGVDLLKFDGCYCDSLENLADGYKHMSLALNRTGRSIVYSCEWPLYMWPFQKPNYTEIRQYCNHWRNFADIDDSWASIKSILDWTSRNQERIVDVAGPGGWNDPDMLVIGNFGLSWDQQVTQMALWAIMAAPLFMSNDLRHISPQAKALLQDKDVIAINQDPLGKQGYQLRKGDNFEVWERPLSGDAWAVAIINRQEIGGPRSYTIPVASLGKGVACNPACFITQLLPVKRQLGFYNWTSRLKSHINPTGTVLLQLENTMQMSLKDLL
modifications: Synthetic Polypeptide sequence of Variant No. 607 of mature Human GLA
- Relative Activity of GLA Variants After No Challenge (NC) [1]: + (+ = 1.5 to 5 relative activity over Rd3BB (SEQ ID NO: 13))
- Relative Activity of GLA Variants After Challenge at pH 3.7 [2]: + (+ = 1.5 to 5 relative activity over Rd3BB (SEQ ID NO: 13))
- Relative Activity of GLA Variants After Challenge at pH 9.7 [3]: ++ (++ = >5 to 10 relative activity over Rd3BB (SEQ ID NO: 13))

B8: 603 (protein)
chain: LDNGLARTPTMGWLHWERFMCNLDCQEEPDSCISEKLFREMAERMVSEGWKDAGYEYLCIDDCWMAPQRDSEGRLQADPQRFPHGIRQLANHVHSKGLKLGIYADVGNKTCAGFPGSFGYYDIDAQTFADWGVDLLKFDGCYCDSLENLADGYKHMSLALNRTGRSIVYSCEWPLYMWPFQKPNYTEIRQYCNHWRNFADIDDSWASIKSILDWTSRNQERIVDVAGPGGWNDPDMLVIGNFGLSWDQQVTQMALWAIMAAPLFMSNDLRHISPQAKALLQDKDVIAINQDPLGKQGYQLRKGDNFEVWERPLSGDAWAVAIINRQEIGGPRSYTIPVASLGKGVACNPACFITQLLPVKRQLGFYNWTSRLKSHINPTGTVLLQLENTMQMSLKDLL
modifications: Synthetic Polypeptide sequence of Variant No. 603 of mature Human GLA
- Relative Activity of GLA Variants After No Challenge (NC) [1]: + (+ = 1.5 to 5 relative activity over Rd3BB (SEQ ID NO: 13))
- Relative Activity of GLA Variants After Challenge at pH 3.7 [2]: + (+ = 1.5 to 5 relative activity over Rd3BB (SEQ ID NO: 13))
- Relative Activity of GLA Variants After Challenge at pH 9.7 [3]: + (+ = 1.5 to 5 relative activity over Rd3BB (SEQ ID NO: 13))

Reference: patent publication US11278600B2, “Human alpha-galactosidase variants” (Codexis, Inc., priority 2014, dated 2022)
